B1: recombinant VEGF MiniTrap (dimer) MT5 (receptor)
chain: SDTGRPFVEMYSEIPEIIHMTEGRELVIPCRVTSPNITVTLKKFPLDTLIPDGKRIIWDSRKGFIISNATYKEIGLLTCEATVNGHLYKTNYLTHRQTNTIIDVVLSPSHGIELSVGEKLVLNCTARTELNVGIDFNWEYPSSKHQHKKLVNRDLKTQSGSEMKKFLSTLTIDGVTRSDQGLYTCAASSGLMTKKNSTFVRVHEKDKTHTCPPCPAPELLG
notes: also called VEGF MiniTrap 5

Test [1] concerns the target T1, VEGF165 (human, UniProt P15692 207-395).
T1 construct: also called hVEGF165
Nature of the test: SPR, Biacore T200, 25 C; MT5 captured on amine-coupled mAb1, VEGF165 injected at 0.03-2 nM; 1:1 Langmuir fit. As to conditions: loading solution before affinity chromatography. As to the method:
All binding studies were performed in 10 mM HEPES, 150 mM NaCl, 3 mM EDTA, and 0.05% v/v Surfactant Tween-20, pH 7.4 (HBS-ET) running buffer at 25° C. The Biacore sensor surface was first derivitized by amine coupling with a mAb 1 to capture MT5.
Briefly, the eluates from the columns and loading solution were diluted into an HBS-EP (Biacore) buffer and injected across the immobilized protein matrices at a capture level of ˜70 RUs. The VEGF₁₆₅ was then injected at a flow rate of 50 μL/min. Equivalent concentration of analyte was simultaneously injected over an untreated reference surface to serve as blank sensorgrams for subtraction of bulk refractive index background. The sensor chip surface was regenerated between cycles with two 5-min injections of 10 mM Glycine, at 25 μL/min. The resultant experimental binding sensorgrams were then evaluated using the BIA evaluation 4.0.1 software to determine kinetic rate parameters. Datasets for each sample were fit to the 1:1 Langmuir model. For these studies, binding and dissociation data were analyzed under the Global Fit Analysis protocol while selecting fit locally for maximum analyte binding capacity (RU) or Rmax attribute. In this case, the software calculated a single dissociation constant (kd), association constant (ka), and affinity constant (Kd). The equilibrium dissociation constant is KD=kd/ka. […] The dissociative half-lives (t½) were calculated from the kinetic rate constants as: t_{1/2}=ln(2)/60*[…]. Binding kinetic parameters for MT5 to VEGF₁₆₅ obtained from before and after the affinity chromatography production at 25° C. are shown in Table 7-6.

In test [2] the target is B1. Nature of the test: affinity chromatography on immobilized mAb2, low-pH eluate on non-reducing SDS-PAGE. As to the method:
(§1) The column was activated by washing the columns with 6 column volumes (CV) of 1 mM ice-cold hydrochloric acid at a flow rate not exceeding 1 mL/min. […] The columns were washed with 18 column volumes of 0.5 M sodium acetate, 0.5 M NaCl, pH 4.0 and the open sites were blocked with 18 column volumes of 0.5 M Tris-HCl, 0.5 M NaCl pH 8.3 (the wash was carried out in the following order: 6 column volumes of 0.5 M Tris-HCl, 0.5 M NaCl, pH 8.3; 6 column volumes of 0.5 M sodium acetate (sodium acetate: JT Baker, Cat #3470-01), 0.5 M NaCl, pH 4.0; 6 column volumes of 0.5 M Tris, pH 8.3; incubate the column for 30 minutes at room temperature; 6 column volumes of 0.5 M sodium acetate buffer, 0.5 M NaCl pH 4.0; 6 column volumes of 0.5 M Tris-HCl, 0.5 NaCl, pH 8.3 and 6 column volumes of 0.5 M sodium acetate buffer, 0.5 M NaCl pH 4.0). The columns were stored in DPBS, pH 7.5. The five columns evaluated are designated as column 1 (comprising VEGF₁₆₅), column 2 (comprising mAb1), column 3 (comprising mAb2), column 4 (comprising mAb3) and column 5 (comprising mAb4).
(§2) SDS-PAGE analysis of the eluted fractions from the three columns (column 1, column 2, and column 3) was performed. […]

For test [3], the target named is B1. Description: affinity chromatography, antibody coupled to HiTrap NHS-activated column (column 4).
Test [4] addresses B1. Description: affinity chromatography on immobilized mAb1, low-pH eluate on non-reducing SDS-PAGE. The method, then:
as §1, §2

T1 sequence (P15692 other isoform, or with tags, fused parts or gaps limits assumed): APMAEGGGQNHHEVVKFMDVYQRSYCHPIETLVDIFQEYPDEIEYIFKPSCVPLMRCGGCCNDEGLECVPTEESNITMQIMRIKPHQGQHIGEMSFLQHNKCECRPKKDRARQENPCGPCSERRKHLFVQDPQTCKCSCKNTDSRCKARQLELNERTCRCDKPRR

On to B1, for which, in test [1], the Kd was determined as 1.84 pM, the koff is 1.74e-05 s⁻¹, the kon amounted to 9.44e+06 M⁻¹ s⁻¹ and the “t1/2 (dissociative half-life)” value stood at 11.1 h.

B2: mAb2 (a mouse anti-VEGFR1 mAb human IgG1) (antibody, V domains shown)
VH: EVQLVESGGDLVKPGGSLKLSCAASGFTFSDSGMSWVRQTPDKRLEWVATISSGGGYTYYSDSVEGRFTISRDNANNTLFLQMSSLKSEDTAMFYCARLGNYGGYYGMDYWGQGTSVTVSS
VL: DIQMTQSPSSLSASLGGKVTITCKTSQDSNKYIAWYQHKPGKGPRLLIHYTSTLQPGIPSRFSGSGSGRDYSFSISNLEPEDIATYYCLQYDNLWTFGGGTKLEIKR
notes: also called column 3
Take B2: in test [2], the binding result was “binds”.

B3: mAb3 (a mouse anti-VEGFR1 mAb mouse IgG1) (antibody)
heavy: EVQLVESGGDLVKPGGSLKLSCAASGFTFSSSGMSWVRQTPDKRLEWVATITSGGSYTYYPDSVKGRFTISRDNAKNTLYLQMSSLKSEDTAMFYCARLGNYGGYYAMDYWGQGTSVTVSSAKTTPPSVYPLAPGSAAQTNSMVTLGCLVKGYFPEPVTVTWNSGSLSSGVHTFPAVLQSDLYTLSSSVTVPSSTWPSETVTCNVAHPASSTKVDKKIVPRDCGCKPCICTVPEVSSVFIFPPKPKDVLTITLTPKVTCVVVDISKDDPEVQFSWFVDDVEVHTAQTQPREEQFNSTFRSVSELPIMHQDWLNGKEFKCRVNSAAFPAPIEKTISKTKGRPKAPQVYTIPPPKEQMAKDKVSLTCMITDFFPEDITVEWQWNGQPAENYKNTQPIMDTDGSYFVYSKLNVQKSNWEAGNTFTCSVLHEGLHNHHTEKSLSHSPGK
light: DIQMTQSPSSLSASLGGKVTITCTTSQDSNNYIAWYQHKPGKGPRLLIHYASTLQPGIPSRFSGSGSGRDYSFSISNLEPEDIATYFCLQYDYLWTFGGGTKLELKRADAAPTVSIFPPSSEQLTSGGASVVCFLNNFYPKDINVKWKIDGSERQNGVLNSWTDQDSKDSTYSMSSTLTLTKDEYERHNSYTCEATHKTSTSPIVKSFNRGEC
notes: also called column 4
On to B3, for which, in test [3], the binding result is “binds”.

B4: mAb1 (a mouse anti-VEGFR1 mAb human IgG1) (antibody)
heavy: not shown
light: DIQMTQSPSSLSASLGGKVTITCTTSQDSNNYIAWYQHKPGKGPRLLIHYASTLQPGIPSRFSGSGSGRDYSFSISNLEPEDIATYFCLQYDYLWTFGGGTKLELKRTVAAPSVFIFPPSDEQLKSGTASVVCLLNNFYPREAKVQWKVDNALQSGNSQESVTEQDSKDSTYSLSSTLTLSKADYEKHKVYACEVTHQGLSSPVTKSFNRGEC
notes: Also amine-coupled to the Biacore chip to capture MT5
In the case of B4, the binding result in test [4] is given as “binds”.

These data come from patent US20210214430A1 (Regeneron, published 2021).
